Measured values: US20040241845A1 (UNIVERSIT DE MONTR AL, published 2004)
Residue numbers refer to the chain shown, from its start. Names may count otherwise.

B1: MA/Rluc (other)
chain: MGARASVLSGGELDRWEKIRLRPGGKKKYKLKHIVWASRELERFAVNPGLLETSEGCRQILGQLQPSLQTGSEELRSLYNTVATLYCVHQRIEIKDTKEALDKIEEEQNKSKKKAQQAAADTGHSNQVSQNY
notes: domain: MA; not shown: Renilla reniformis luciferase (Rluc) of pRluc-N1(h)
B2: Staufen-HA (wild-type human Staufen, short isoform, HA-tagged) (other)
chain: MKLGKKPMYKPVDPYSRMQSTYNYNMRGGAYPPRYFYPFPVPPLLYQVELSVGGQQFNGKGKTRQAAKHDAAAKALRILQNEPLPERLEVNGRESEEENLNKSEISQVFEIALKRNLPVNFEVARESGPPHMKNFVTKVSVGEFVGEGEGKSKKISKKNAAIAVLEELKKLPPLPAVERVKPRIKKKTKPIVKPQTSPEYGQGINPISRLAQIQQAKKEKEPEYTLLTERGLPRRREFVMQVKVGNHTAEGTGTNKKVAKRNAAENMLEILGFKVPQRQPTKPALKSEEKTPIKKPGDGRKVTFFEPGSGDENGTSNKEDEFRMPYLSHQQLPAGILPMVPEVAQAVGVSQGHHTKDFTRAAPNPAKATVTAMIARELLYGGTSPTAETILKNNISSGHVPHGPLTRPSEQLDYLSRVQGFQVEYKDFPKNNKNEFVSLINCSSQPPLISHGIGKDVESCHDMAALNILKLLSELDQQSTEMPRTGNGPMSVCGRC
notes: Expressed in 293T cells from the pNL4-3/Staufen-HA chimeric provirus (in the nef reading frame) or from a Staufen-HA expressor (pcDNA3-RSV-hStau-HA); Runs as a 60 kDa band; also called hStau/HA; HA-hStau
B3: Staufen F135A-HA (full-length Staufen with a point mutation in dsRBD3) (other)
chain: B2 chain with F135A
notes: Expressed from the pNL4-3/StaufenF135A-HA chimeric provirus
B4: p2-p1/Rluc (other)
chain: AEAMSQVTNSATIMMQRGNFRNQRKIVKCFNCGKEGHTARNCRAPRKKGCWKCGKEGHQMKDCTERQANFLGKIWPSYKGRPGNF
notes: domain: p2-p1; not shown: Renilla reniformis luciferase (Rluc) of pRluc-N1(h)
B5: p6/Rluc (other)
chain: LQSRPEPTAPPEESFRSGVETTTPPQKQEPIDKELYPLTSLRSLFGNDPSSQ
notes: domain: p6; not shown: Renilla reniformis luciferase (Rluc) of pRluc-N1(h)
B6: NC/Rluc (other)
chain: MQRGNFRNQRKIVKCFNCGKEGHTARNCRAPRKKGCWKCGKEGHQMKDCTERQAN
notes: domain: NC; not shown: Renilla reniformis luciferase (Rluc) of pRluc-N1(h)

Legend:
[1] = target: T1, Staufen/YFP fusion protein (human, UniProt O95793 82-577); assay: BRET in live 293T cells
T1 construct: BRET acceptor, expressed in live 293T cells; also called pCMV-Staufen/YFP; not shown: YFP of pCMV-GFP-Topaz (red-shifted GFP variant of Aequorea victoria GFP); its substitutions and the junction are not pri
T1 sequence: B2 chain

[2] = target: HIV-1 CA (processed form of pr55Gag, CAp24/p25) (HIV-1 (pNL4-3), UniProt P12493 133-363); assay: co-immunoprecipitation with anti-HA
[3] = target: T2, HIV-1 pr55Gag (Gag precursor expressed from pNL4-3 proviruses) (HIV-1 (pNL4-3), UniProt P12493 2-500); assay: co-immunoprecipitation with anti-CA, Western with anti-HA
T2 construct: In lysates of transfected 293T cells; The anti-CA antibody also pulls down pr41Gag and CAp24/p25

Binder	binding result [1]	other results
B1	no binding	–
B2	–	binding result [2]: no binding
B3	–	binding result [3]: no binding
B4	binds	–
B5	no binding	–
B6	binds	–
